{
  "source": "the supplement of paper PMC9732359",
  "note": "± gives the uncertainty stated by the source.",
  "data": [
    {"test": "protein stability index of a GFP-peptide fusion (yeast GPS) (PSI 1-4); higher = more stable; sorted into four equal gates, so the index is relative within each strain", "settings": "doa10∆", "procedure,_shortened": "(§1)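 Plasmids isolated from each sorting gate were PCR-amplified and Illumina-sequenced, and barcodes assigned the reads to strains. The gates, four of equal size, were set by GFP/Cherry fluorescence ratio on mid-log cultures in leucine-free medium. These cultures were yeast carrying a pooled library of tiled 17-residue yeast protein peptides fused downstream of GFP on a plasmid that also expresses Cherry. The protein stability index is the sum of every gate's read frequency times its gate number.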", "values": [
      {"sequence": "TTNMNVNNCIWALKSSL [RGR1]", "protein stability index": "2.26 ± 0.068"},
      {"sequence": "TTRVGGGGAARRQAVDV [RPS5]", "protein stability index": "1.61 ± 0.26"}
    ]},
    {"test": "protein stability index of a GFP-peptide fusion (yeast GPS) (PSI 1-4); higher = more stable; sorted into four equal gates, so the index is relative within each strain", "settings": "pdr5∆", "procedure,_shortened": "as §1", "values": [
      {"sequence": "TDAGVLALKLELLDFLT [YJL039C/NUP192]", "protein stability index": "2.98 ± 0.078"},
      {"sequence": "TDGDSILYYDVLFITPD [BRR2]", "protein stability index": "2.5 ± 0.064"},
      {"sequence": "TDGELDIEFINSLLTIV [RPC34]", "protein stability index": "2.68 ± 0.14"},
      {"sequence": "TDLHLPKKEYDDDAVRR [NSL1]", "protein stability index": "2.25 ± 0.12"},
      {"sequence": "TDLMSIVQELLDKNLIK [RPC34]", "protein stability index": "2.74 ± 0.17"},
      {"sequence": "TDLRFQSSAIGALQESV [HHT1]", "protein stability index": "1.41 ± 0.13"},
      {"sequence": "TDRLSTTQRRYEKAQKD [SMC1]", "protein stability index": "3.23 ± 0.095"},
      {"sequence": "TDVLEISKQRTFAVILF [YMR129W/POM152]", "protein stability index": "2.52 ± 0.054"},
      {"sequence": "TDYLYRRLHDENLMVQR [YCS4]", "protein stability index": "2.08 ± 0.063"},
      {"sequence": "TEAGFFAIRDDRDHINP [RPT4]", "protein stability index": "2.99 ± 0.072"},
      {"sequence": "TEEELQAAVPDNAEDDS [BRN1]", "protein stability index": "3.14 ± 0.089"},
      {"sequence": "TEELQTQYATSQKTKTI [SMC2]", "protein stability index": "3.19 ± 0.14"},
      {"sequence": "TEHSKVTRFDEKQIEEL [SRB6]", "protein stability index": "3.26 ± 0.086"},
      {"sequence": "TEKLSPLASEESLTNSN [YGL100W/SEH1]", "protein stability index": "3.25 ± 0.14"},
      {"sequence": "TELMNRSPLVTPMDESS [SRP72]", "protein stability index": "2.58 ± 0.07"},
      {"sequence": "TENAIEEKVIERAAQKL [ISW2]", "protein stability index": "2.74 ± 0.17"},
      {"sequence": "TENDIKALQSIGQLIGE [RPT4]", "protein stability index": "3.06 ± 0.095"},
      {"sequence": "TEQQIEVPEGVTVSIKS [RPL9A]", "protein stability index": "2.3 ± 0.051"},
      {"sequence": "TESNELIQKLQNSANNN [IRR1]", "protein stability index": "3.02 ± 0.082"},
      {"sequence": "TFDGIRMSSEEVNSLLL [GRR1]", "protein stability index": "3.04 ± 0.15"},
      {"sequence": "TFEKHDRVEDICERIFE [RRI2]", "protein stability index": "3.05 ± 0.16"},
      {"sequence": "TFHDELNLKFKEKWPSL [YML103C/NUP188]", "protein stability index": "3.57 ± 0.2"},
      {"sequence": "TFPPEVLARISPELSLQ [RRP43]", "protein stability index": "2.87 ± 0.11"},
      {"sequence": "TFSWLNAELLDYLFHLL [YLR018C/POM34]", "protein stability index": "1.47 ± 0.039"},
      {"sequence": "TFTKKCLENARSQISEK [SIR4]", "protein stability index": "3.12 ± 0.057"},
      {"sequence": "TGESEESSSEDDYEDQD [IRR1]", "protein stability index": "3.34 ± 0.16"},
      {"sequence": "TGETYQRFVGHKSDVMS [ASC1]", "protein stability index": "3.09 ± 0.069"},
      {"sequence": "TGKIVDVVGTLSRNGKP [FAS1]", "protein stability index": "3.6 ± 0.13"},
      {"sequence": "TGLCSFDYSVILNSIPA [YJL039C/NUP192]", "protein stability index": "1.51 ± 0.059"},
      {"sequence": "TGLNGSGKSNILDAICF [SMC2]", "protein stability index": "2.98 ± 0.093"},
      {"sequence": "TGNFIIPSGNVWNYTFM [PRP8]", "protein stability index": "2.95 ± 0.12"},
      {"sequence": "TGNNLYDRNSNNNHKDK [SWI1]", "protein stability index": "3.12 ± 0.051"},
      {"sequence": "TGVVYNVTKSSVGVIIN [RPL21A]", "protein stability index": "2.6 ± 0.057"},
      {"sequence": "TGWISKCTAEGIKVSLL [RPC25]", "protein stability index": "3.12 ± 0.15"},
      {"sequence": "THAQRTGLSQIPNRRFT [PRP8]", "protein stability index": "2.62 ± 0.047"},
      {"sequence": "THLEIEPFTILGAVAGL [RET1]", "protein stability index": "1.91 ± 0.054"},
      {"sequence": "THPHAADGSSYMEQGNN [SKI6]", "protein stability index": "3.2 ± 0.063"},
      {"sequence": "TIIFIDELDAIGTKRFD [RPT5]", "protein stability index": "2.33 ± 0.045"},
      {"sequence": "TILCTPTGGKAKLSEGT [RPS27A]", "protein stability index": "2.85 ± 0.1"},
      {"sequence": "TINEMMKHLGRSEGNPV [FAS2]", "protein stability index": "2.76 ± 0.064"},
      {"sequence": "TISILAAPSGNYKQLTL [RRP43]", "protein stability index": "1.94 ± 0.032"},
      {"sequence": "TITNSSSSSDIIVPDLI [YML103C/NUP188]", "protein stability index": "3.07 ± 0.052"},
      {"sequence": "TIWCVCDSYLDADKELS [BRR2]", "protein stability index": "2.44 ± 0.07"},
      {"sequence": "TIYYVDSDGTRLKGDIF [PRE2]", "protein stability index": "3.24 ± 0.065"},
      {"sequence": "TKENLEVSGENVVEADL [QCR2]", "protein stability index": "3.6 ± 0.09"},
      {"sequence": "TKFSKLIGRPPLLVPGM [FAS1]", "protein stability index": "2 ± 0.064"},
      {"sequence": "TKHLMPQDLTFNAGSNP [RPB7]", "protein stability index": "3.62 ± 0.2"},
      {"sequence": "TKKSKLESTKAETDYVD [DSN1]", "protein stability index": "2.9 ± 0.069"},
      {"sequence": "TKLYFDVNEKIRFRIER [RPC25]", "protein stability index": "2.92 ± 0.097"},
      {"sequence": "TKMFEDRREKAERTMSK [SMC2]", "protein stability index": "3.37 ± 0.1"},
      {"sequence": "TKSSLNDLDYDLIADTI [YML103C/NUP188]", "protein stability index": "2.48 ± 0.057"},
      {"sequence": "TKTILSGTDGSTIGILL [SRP72]", "protein stability index": "2.81 ± 0.062"},
      {"sequence": "TLENTLKAAFVAIGNTY [RPS2]", "protein stability index": "1.9 ± 0.11"},
      {"sequence": "TLFCCLLRSRLATRRVL [RPO21]", "protein stability index": "1.22 ± 0.06"},
      {"sequence": "TLKNRGLPLGIAEEKMW [YGR119C/NUP57]", "protein stability index": "1.7 ± 0.078"},
      {"sequence": "TLSNAERAKNVNGLLQV [GAL11]", "protein stability index": "3.23 ± 0.1"},
      {"sequence": "TLSPNVTDSSLLKLLTR [GRR1]", "protein stability index": "2.99 ± 0.07"},
      {"sequence": "TLTKISMLFKTSQKMTS [MCD1]", "protein stability index": "2.83 ± 0.16"},
      {"sequence": "TLVNKSTGLKNASDALK [RPS1B]", "protein stability index": "3.2 ± 0.11"},
      {"sequence": "TMIKKTTLVTRREELQQ [SMC3]", "protein stability index": "2.94 ± 0.11"},
      {"sequence": "TMMTVEEKPDVTYSDVG [RPT1]", "protein stability index": "2.42 ± 0.068"},
      {"sequence": "TMRKISSETDDDHSQVI [DSN1]", "protein stability index": "3.24 ± 0.064"},
      {"sequence": "TMYMEVYTAIYNYCVNK [CDC53]", "protein stability index": "1.55 ± 0.047"},
      {"sequence": "TNFKEEITDASLNLQYV [YML103C/NUP188]", "protein stability index": "3.06 ± 0.084"},
      {"sequence": "TNHVLEVFSVLGIEAAR [RPO31]", "protein stability index": "2.4 ± 0.11"},
      {"sequence": "TNILTKVDINADSAVNR [PRP28]", "protein stability index": "3.4 ± 0.074"},
      {"sequence": "TNKDNKAELIKPIQNGE [ARP9]", "protein stability index": "3.14 ± 0.083"},
      {"sequence": "TNLGQPHSLATKTTGKC [RPS2]", "protein stability index": "2.69 ± 0.13"},
      {"sequence": "TNLSGGEKTLSSLALVF [SMC4]", "protein stability index": "3.2 ± 0.097"},
      {"sequence": "TNNMEKIIEDLRQKHEF [SMC2]", "protein stability index": "2.9 ± 0.046"},
      {"sequence": "TNSHLPAGKQVEISLVN [FAS1]", "protein stability index": "3.37 ± 0.13"},
      {"sequence": "TNSTYNPASATDNMSGR [YJL039C/NUP192]", "protein stability index": "2.73 ± 0.063"},
      {"sequence": "TNVEDPLAKKQTVRLIK [SIR2]", "protein stability index": "3.08 ± 0.067"},
      {"sequence": "TNVQRIAAYIRRHRNPD [SMC1]", "protein stability index": "3.32 ± 0.22"},
      {"sequence": "TPAMIPYPGSPMHSIMP [DSN1]", "protein stability index": "2.67 ± 0.034"},
      {"sequence": "TPKITAAEKSFKPPKNK [SEC65]", "protein stability index": "3.14 ± 0.2"},
      {"sequence": "TPSQIGVLLRDAHGVTQ [RPS13]", "protein stability index": "1.81 ± 0.15"},
      {"sequence": "TPSTETAASVFKELCYE [PRE3]", "protein stability index": "2.1 ± 0.052"},
      {"sequence": "TQATSEDGTSASFQIVE [RPC19]", "protein stability index": "3.18 ± 0.079"},
      {"sequence": "TQGGNVNLDNTAVGKAA [RPT5]", "protein stability index": "3.28 ± 0.052"},
      {"sequence": "TQKRTHVLKKNPLKNKQ [RPL4A]", "protein stability index": "2.52 ± 0.22"},
      {"sequence": "TQNSRHYMVHEALNLLK [LIN1]", "protein stability index": "2.98 ± 0.075"},
      {"sequence": "TQTVSGTPPMLHQRTHK [DSN1]", "protein stability index": "3.11 ± 0.097"},
      {"sequence": "TQVALNESEKDQWLEEY [UBP6]", "protein stability index": "2.55 ± 0.07"},
      {"sequence": "TRHQNTIHAKRKIVFRC [RPN4]", "protein stability index": "2.85 ± 0.059"},
      {"sequence": "TRKAARPQKLRASLVPG [RPL6A]", "protein stability index": "1.5 ± 0.12"},
      {"sequence": "TRKAMLDPLEVHMLDFP [PRP8]", "protein stability index": "2.94 ± 0.06"},
      {"sequence": "TRQSSRNFDTHENYIQD [MCD1]", "protein stability index": "3.03 ± 0.082"},
      {"sequence": "TSALSELSGLISSAKLD [QCR2]", "protein stability index": "2 ± 0.083"},
      {"sequence": "TSGKVELPKKLLNLPPF [SRB8]", "protein stability index": "3.1 ± 0.25"},
      {"sequence": "TSKSFSKLLYDDVTCDK [SIN4]", "protein stability index": "2.9 ± 0.051"},
      {"sequence": "TSKSLVKRYRLAPTQLS [SIN4]", "protein stability index": "2.26 ± 0.051"},
      {"sequence": "TSMTGDANLLEEGETSR [SWI3]", "protein stability index": "3.35 ± 0.097"},
      {"sequence": "TSNWEIYKPLLFEIVSN [SRB8]", "protein stability index": "2.05 ± 0.066"},
      {"sequence": "TSPEKKDGGDKPPSSAF [YAR002W/NUP60]", "protein stability index": "3.34 ± 0.075"},
      {"sequence": "TSPLYMDPGAPLPVETP [SSN2]", "protein stability index": "2.82 ± 0.12"},
      {"sequence": "TSPQYIPSPLSSTKPPG [NUT1]", "protein stability index": "2.42 ± 0.034"},
      {"sequence": "TSQYGTPSTETAASVFK [PRE3]", "protein stability index": "2.29 ± 0.042"},
      {"sequence": "TTIDSLNAELESKLIPQ [SMC3]", "protein stability index": "3.03 ± 0.085"},
      {"sequence": "TTLKSVTIASEIYYDPD [RPO21]", "protein stability index": "2.45 ± 0.085"}
    ]}
  ]
}
